In publication PMC7116351 (Protein expression and purification, 2019):

Target: the molecule itself
Experiment: SEC

B1: MgtE Mg2+ channel from Thermus thermophilus (wild type) (natural protein, UniProt Q5SMG8 1-450, looked up)
chain: MEEKLAVSLQEALQEGDTRALREVLEEIHPQDLLALWDELKGEHRYVVLTLLPKAKAAEVLSHLSPEEQAEYLKTLPPWRLREILEELSLDDLADALQAVRKEDPAYFQRLKDLLDPRTRAEVEALARYEEDEAGGLMTPEYVAVREGMTVEEVLRFLRRAAPDAETIYYIYVVDEKGRLKGVLSLRDLIVADPRTRVAEIMNPKVVYVRTDTDQEEVARLMADYDFTVLPVVDEEGRLVGIVTVDDVLDVLEAEATEDIHKLGAVDVPDLVYSEAGPVALWLARVRWLVILILTGMVTSSILQGFESVLEAVTALAFYVPVLLGTGGNTGNQSATLIIRALATRDLDLRDWRRVFLKEMGVGLLLGLTLSFLLVGKVYWDGHPLLLPVVGVSLVLIVFFANLVGAMLPFLLRRLGVDPALVSNPLVATLSDVTGLLIYLSVARLLLEAV
  stoichiometry N: 2
